# Measurements from US6777176.
# Experiments:
# [1] = molecular target: enzyme I (phosphoenolpyruvate-protein-phosphatase, EC 2.7.3.9) of the bacterial phosphotransferase system (E. coli) (UniProt P08839); assay: cell-based or functional assay
# [2] = test system: peptides from the phage display library which became phosphorylated by Enzyme I
Substance,uncoupling P1/peptide/h [1] [P1/peptide/h],"phosphorylation of phage displayed peptides by enzyme I with [32P]phosphoenolpyruvate, fold over the average [2]",rate of phosphorylation by enzyme I (pyruvate formation coupled to lactate dehydrogenase) [2]
HPr protein (from UniProt P0AA04 1-85),2.7,–,–
"enzyme I (phosphoenolpyruvate-protein-phosphatase, EC 2.7.3.9) of the bacterial phosphotransferase system",–,phosphorylated 25 to 30 fold over the average,The inhibitory peptides are phosphorylated by enzyme I at a much slower rate than Hpr.
